The test deals with T1, interleukin-23 receptor (IL-23R), Q5VWK5.
T1 chain: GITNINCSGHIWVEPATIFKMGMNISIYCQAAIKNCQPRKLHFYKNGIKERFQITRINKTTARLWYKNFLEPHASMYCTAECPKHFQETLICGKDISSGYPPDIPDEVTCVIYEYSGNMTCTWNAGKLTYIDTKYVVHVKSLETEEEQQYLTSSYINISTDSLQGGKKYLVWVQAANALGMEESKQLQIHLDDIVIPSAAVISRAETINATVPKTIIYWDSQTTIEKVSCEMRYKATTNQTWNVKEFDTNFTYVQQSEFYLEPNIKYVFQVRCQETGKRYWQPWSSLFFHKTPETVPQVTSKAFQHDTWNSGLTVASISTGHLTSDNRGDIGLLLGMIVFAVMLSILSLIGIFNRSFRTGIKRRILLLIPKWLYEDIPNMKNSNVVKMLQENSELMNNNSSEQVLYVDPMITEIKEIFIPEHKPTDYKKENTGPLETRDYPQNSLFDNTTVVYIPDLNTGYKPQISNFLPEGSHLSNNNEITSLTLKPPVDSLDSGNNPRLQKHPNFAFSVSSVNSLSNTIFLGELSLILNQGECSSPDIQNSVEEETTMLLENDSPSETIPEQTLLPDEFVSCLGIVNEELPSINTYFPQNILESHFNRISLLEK
The experiment in a line: cell-based or functional assay.

Starred links: 1 amine or outer side, 2 acyl side, 3 side chain; linkers in the order of their positions; H or OH if unused. Positions of bridges follow the written chain, without caps; N, C: chain ends. Non-standard residues stand in square brackets, D forms with d. No end group written: not given here. X1 = 3‑(7-(3-acetamidophenyl)-1H-indol-3-yl)‑2‑aminopropanoic acid, CC(=O)Nc1cccc(-c2cccc3c(CC(N[*:1])C(=O)[*:2])c[nH]c23)c1; X3 = 4‑(2-(4-(2-amino-2-carboxyethyl)phenoxy)ethyl)‑4‑methylmorpholin‑4‑ium, C[N+]1(CCOc2ccc(CC(N[*:1])C(=O)[*:2])cc2)CCOCC1; X10 = 2‑amino‑3‑(4-(2-guanidinoethoxy)phenyl)propanoic acid, N=C(N)NCCOc1ccc(CC(N[*:1])C(=O)[*:2])cc1; Trp(7-(3-AcNH-Ph)) = CC(=O)Nc1cccc(-c2cccc3c(C[C@H](N)C(=O)O)c[nH]c23)c1; N‑methyl‑N‑acetyllysine = N-methyl-N-acetyllysine; 2Nal(6-OH) = N[C@@H](Cc1ccc2cc(O)ccc2c1)C(=O)O; Trp(7-Me) = Cc1cccc2c(C[C@H](N)C(=O)O)c[nH]c12; dLys(Me3) = C[N+](C)(C)CCCC[C@@H](N)C(=O)O; 3Pal(5-Me) = Cc1cncc(C[C@H](N)C(=O)O)c1; AEF = NCCOc1ccc(C[C@H](N)C(=O)O)cc1; αMeF = C[C@](N)(Cc1ccccc1)C(=O)O; 3Pal = N[C@@H](Cc1cccnc1)C(=O)O; Pen = CC(C)(S)[C@H](N)C(=O)O; αMeC = C[C@](N)(CS)C(=O)O; Thp = NC1(C(=O)O)CCOCC1; Abu = CC[C@H](N)C(=O)O; Ahp = NCCCCCCC(=O)O; Sar = CNCC(=O)O

With R[Abu]NT[Trp(7-(3-AcNH-Ph))]K(Ac)[αMeC][AEF][2Nal(6-OH)][Thp]EN[3Pal][Sar] (ends and bridges not checked) [SEQ ID NO: 6], the IL23R Reporter Assay IC50 was < 10 nM and the PBMC pSTAT3 IC50 was < 0.1 nM.

With R[Pen]NT[Trp(7-Me)]K(Ac)[Pen][5‑(4-(2-amino-2-carboxyethyl)phenoxy)‑N,N,N‑trimethylpentan‑1‑aminium][2Nal(6-OH)][Thp]K(Ac)N[3Pal][Sar] (disulfide 2-7 (inferred); ends not checked) [SEQ ID NO: 58], the IL23R Reporter Assay IC50 was < 10 nM and the PBMC pSTAT3 IC50 was < 0.1 nM.

R[Pen]NT[Trp(7-Me)]K(Ac)[Pen][2‑amino‑3‑(4-(2-aminoethoxy)phenyl)propanoic acid][2‑amino‑3‑(5-methylnaphthalen-2-yl)propanoic acid][Thp]EN[αMeF] (disulfide 2-7 (inferred); ends not checked) [SEQ ID NO: 445]: the IL23R Reporter Assay IC50 is > 100 nM and the PBMC pSTAT3 IC50 is > 1 nM.

[dLys(Me3)][Pen]NT[Trp(7-Me)]K(Ac)[Pen][5‑(4-(2-amino-2-carboxyethyl)phenoxy)‑N,N,N‑trimethylpentan‑1‑aminium][2Nal(6-OH)][Thp]EN[3Pal][Sar] (not fully specified (bridges); ends and bridges not checked) [SEQ ID NO: 67]: the IL23R Reporter Assay IC50 is < 10 nM and the PBMC pSTAT3 IC50 was < 0.1 nM.

[Pen]NT[Trp(7-(3-AcNH-Ph))]K(Ac)[Pen][X3][2Nal(6-OH)][Thp][N‑methyl‑N‑acetyllysine]NH[Sar] (disulfide 1-6 (inferred); ends not checked) [SEQ ID NO: 62]: the IL23R Reporter Assay IC50 was < 10 nM and the PBMC pSTAT3 IC50 was < 1 nM.

As to R[Pen]NT[Trp(7-(3-AcNH-Ph))]K(Ac)[Pen][X3][2Nal(6-OH)][Thp]ENH[Sar] (disulfide 2-7 (inferred); ends not checked) [SEQ ID NO: 64], the PBMC pSTAT3 IC50 is < 1 nM.

Take [Pen]NT[Trp(7-Me)]K(Ac)[Pen][X3][2Nal(6-OH)][Thp]EN[3Pal][Sar] (disulfide 1-6 (inferred); ends not checked) [SEQ ID NO: 56]: the IL23R Reporter Assay IC50 was < 10 nM and the PBMC pSTAT3 IC50 is < 10 pM.

As for R[Pen]QTWQ[Pen][2‑amino‑3‑(4-(2-aminoethoxy)phenyl)propanoic acid][2‑amino‑3‑(6-hydroxynaphthalen-2-yl)propanoic acid][Thp]EN[Thp] (not fully specified (bridges); ends and bridges not checked) [SEQ ID NO: 430], the IL23R Reporter Assay IC50 was > 100 nM and the PBMC pSTAT3 IC50 was > 1 nM.

Consider R[Pen]NT[Trp(7-Me)]K(Ac)[Pen][AEF][2Nal(6-OH)][Thp]ENH[Sar] (disulfide 2-7 (inferred); ends not checked) [SEQ ID NO: 57], for which the PBMC pSTAT3 IC50 was < 1 nM.

Regarding R[Pen]NT[Trp(7-(3-AcNH-Ph))]K(Ac)[Pen]Y[2Nal(6-OH)][Thp]EN[3Pal][Sar] (disulfide 2-7 (inferred); ends not checked) [SEQ ID NO: 65], the IL23R Reporter Assay IC50 was < 10 nM and the PBMC pSTAT3 IC50 is < 1 nM.

On to R[Pen]NT[Trp(7-Me)]K(Ac)[Pen][2‑amino‑3‑(4-(2-aminoethoxy)phenyl)propanoic acid][2‑amino‑3‑(5-carbamoylnaphthalen-2-yl)propanoic acid][Thp]EN[αMeF] (disulfide 2-7 (inferred); ends not checked) [SEQ ID NO: 439], for which the IL23R Reporter Assay IC50 was > 100 nM and the PBMC pSTAT3 IC50 is < 1 nM.

Take [Pen]NT[Trp(7-(3-AcNH-Ph))]K(Ac)[Pen][AEF][2Nal(6-OH)][Thp]EN[3Pal][Sar] (not fully specified (bridges); ends and bridges not checked) [SEQ ID NO: 69]: the IL23R Reporter Assay IC50 was < 10 nM and the PBMC pSTAT3 IC50 was < 10 pM.

With [dLys(Me3)]CNT[Trp(7-Me)]K(Ac)[αMeC][2‑amino‑3‑(4-(2-aminoethoxy)phenyl)propanoic acid][2‑amino‑3‑(6-hydroxynaphthalen-2-yl)propanoic acid][Thp]EN[3Pal][Sar] (ends and bridges not checked) [SEQ ID NO: 8], the IL23R Reporter Assay IC50 is < 10 nM and the PBMC pSTAT3 IC50 is < 10 pM.

With [Pen]NT[Trp(7-(3-AcNH-Ph))]K(Ac)[Pen][5‑(4-(2-amino-2-carboxyethyl)phenoxy)‑N,N,N‑trimethylpentan‑1‑aminium][2Nal(6-OH)][Thp]EN[3Pal][Sar] (disulfide 1-6 (inferred); ends not checked) [SEQ ID NO: 63], the IL23R Reporter Assay IC50 was < 10 nM and the PBMC pSTAT3 IC50 was < 0.1 nM.

In the case of R[Pen]NT[Trp(7-Me)]K(Ac)[Pen][2‑amino‑3‑(4-(2-aminoethoxy)phenyl)propanoic acid][2‑amino‑3‑(5-methoxynaphthalen-2-yl)propanoic acid][Thp]EN[αMeF] (disulfide 2-7 (inferred); ends not checked) [SEQ ID NO: 437], the IL23R Reporter Assay IC50 is > 100 nM and the PBMC pSTAT3 IC50 was > 1 nM.

[Pen]NT[X1]K(Ac)[Pen][X10][2‑amino‑3‑(6-hydroxynaphthalen-2-yl)propanoic acid][Thp]EN[3Pal][Sar] (ends and bridges not checked) [SEQ ID NO: 9]: the IL23R Reporter Assay IC50 was < 10 nM and the PBMC pSTAT3 IC50 was > 1 nM.

R[Pen]NT[Trp(7-Me)]K(Ac)[Pen][X3][2Nal(6-OH)][Thp]EN[3Pal][Sar] (not fully specified (bridges); ends and bridges not checked) [SEQ ID NO: 77]: the IL23R Reporter Assay IC50 was < 10 nM and the PBMC pSTAT3 IC50 was < 10 pM.

Turning to R[Abu]NTWK(Ac)[αMeC][X10][2Nal(6-OH)][Thp]K(Ac)N[3Pal][Sar] (ends and bridges not checked) [SEQ ID NO: 7], the IL23R Reporter Assay IC50 was < 10 nM and the PBMC pSTAT3 IC50 is < 0.1 nM.

In the case of [Ahp][Pen]NT[Trp(7-Me)]K(Ac)[Pen][2‑amino‑3‑(4-(2-aminoethoxy)phenyl)propanoic acid][2‑amino‑3‑(6-hydroxynaphthalen-2-yl)propanoic acid][Thp]EN[3Pal][Sar] (disulfide 2-7 (inferred); ends not checked) [SEQ ID NO: 447], the IL23R Reporter Assay IC50 was > 100 nM and the PBMC pSTAT3 IC50 is < 1 nM.

With R[Pen]NT[Trp(7-(3-AcNH-Ph))]K(Ac)[Pen][AEF][2Nal(6-OH)][Thp]EN[3Pal(5-Me)][Sar] (disulfide 2-7 (inferred); ends not checked) [SEQ ID NO: 53], the IL23R Reporter Assay IC50 was < 10 nM.

Turning to R[Pen]NT[Trp(7-Me)]K(Ac)[Pen][2‑amino‑3‑(4-(2-aminoethoxy)phenyl)propanoic acid][2‑amino‑3‑(6-(2-hydroxyphenyl)naphthalen-2-yl)propanoic acid][Thp]EN[Thp] (not fully specified (bridges); ends and bridges not checked) [SEQ ID NO: 431], the IL23R Reporter Assay IC50 was > 100 nM and the PBMC pSTAT3 IC50 is > 1 nM.

Turning to R[Pen]NT[Trp(7-Me)]K(Ac)[Pen][2‑amino‑3‑(4-(2-aminoethoxy)phenyl)propanoic acid][2‑amino‑3‑(6-hydroxynaphthalen-2-yl)propanoic acid][Thp]EN[2‑amino‑3‑(5-carbamoylpyridin-3-yl)propanoic acid][Sar] (disulfide 2-7 (inferred); ends not checked) [SEQ ID NO: 441], the IL23R Reporter Assay IC50 was < 10 nM and the PBMC pSTAT3 IC50 was < 0.1 nM.

R[Pen]NTWK(Ac)[Pen][AEF][2Nal(6-OH)][Thp]EN[3Pal][Sar] (not fully specified (bridges); ends and bridges not checked) [SEQ ID NO: 74]: the IL23R Reporter Assay IC50 is < 10 nM and the PBMC pSTAT3 IC50 is < 0.1 nM.

Source of the values: US20240279281A1, “Peptide Inhibitors of Interleukin-23 Receptor” (Janssen Pharmaceutica NV, priority 2023, published 2024).
